Assay results reported in patent US5039791A, “Peptide fragments of tissue plasminogen activator” (Monsanto Company, priority 1989, dated 1991).
Where no end group is shown, it is not given here.

Biological target: T1, fibrin (Homo sapiens, UniProt P02671+P02675+P02679)
T1 construct: purchased Kabi Vitrum
T1 sequence (P02671 20-644 isoform P02671-2 limits assumed): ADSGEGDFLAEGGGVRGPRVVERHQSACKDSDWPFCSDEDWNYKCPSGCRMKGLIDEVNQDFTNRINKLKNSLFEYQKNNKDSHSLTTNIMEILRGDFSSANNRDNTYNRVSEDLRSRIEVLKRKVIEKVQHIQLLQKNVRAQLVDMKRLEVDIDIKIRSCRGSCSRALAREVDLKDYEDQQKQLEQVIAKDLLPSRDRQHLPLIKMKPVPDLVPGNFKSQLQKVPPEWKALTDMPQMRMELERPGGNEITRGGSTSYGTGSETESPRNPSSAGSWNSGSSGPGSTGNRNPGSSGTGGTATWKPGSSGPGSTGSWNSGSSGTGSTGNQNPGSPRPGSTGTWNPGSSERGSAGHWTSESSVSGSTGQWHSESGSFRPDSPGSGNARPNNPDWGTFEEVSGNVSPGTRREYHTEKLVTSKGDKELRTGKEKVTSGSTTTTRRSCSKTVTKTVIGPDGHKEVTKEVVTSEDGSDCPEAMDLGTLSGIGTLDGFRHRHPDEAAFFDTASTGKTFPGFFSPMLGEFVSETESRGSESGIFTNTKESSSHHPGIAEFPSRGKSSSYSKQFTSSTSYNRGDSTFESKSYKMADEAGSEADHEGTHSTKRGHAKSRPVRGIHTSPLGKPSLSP
T1 sequence (P02675 45-491 limits assumed): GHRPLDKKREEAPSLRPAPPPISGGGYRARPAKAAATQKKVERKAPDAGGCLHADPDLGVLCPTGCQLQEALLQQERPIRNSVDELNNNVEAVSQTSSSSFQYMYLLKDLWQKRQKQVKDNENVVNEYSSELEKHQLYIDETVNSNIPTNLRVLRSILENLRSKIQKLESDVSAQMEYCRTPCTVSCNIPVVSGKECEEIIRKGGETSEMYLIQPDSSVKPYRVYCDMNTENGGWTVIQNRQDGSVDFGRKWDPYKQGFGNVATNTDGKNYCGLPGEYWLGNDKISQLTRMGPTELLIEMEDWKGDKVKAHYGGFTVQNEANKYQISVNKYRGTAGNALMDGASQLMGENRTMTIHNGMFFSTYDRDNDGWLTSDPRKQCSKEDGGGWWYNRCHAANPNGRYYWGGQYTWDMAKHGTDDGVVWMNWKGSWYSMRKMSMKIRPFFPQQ
T1 sequence (P02679 27-437 isoform P02679-2 limits assumed): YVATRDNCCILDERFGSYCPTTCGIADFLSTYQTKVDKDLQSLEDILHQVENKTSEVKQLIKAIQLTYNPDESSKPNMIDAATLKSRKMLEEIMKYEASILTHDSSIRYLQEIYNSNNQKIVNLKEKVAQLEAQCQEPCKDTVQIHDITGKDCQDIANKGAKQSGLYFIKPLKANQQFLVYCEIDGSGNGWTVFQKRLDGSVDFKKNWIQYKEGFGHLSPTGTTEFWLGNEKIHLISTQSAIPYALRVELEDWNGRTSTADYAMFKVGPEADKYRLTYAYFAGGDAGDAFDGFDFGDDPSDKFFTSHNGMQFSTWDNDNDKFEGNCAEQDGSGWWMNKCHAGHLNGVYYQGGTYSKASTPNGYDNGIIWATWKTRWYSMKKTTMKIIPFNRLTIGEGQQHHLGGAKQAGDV
Test: Fibrin binding: binding of tPA to fibrin, tPA antigen in supernatant by ELISA
Conditions: 15 μg/ml peptide; 200 ng/ml single chain melanoma tPA, 200 μg/ml human fibrinogen; no peptide = 48
Experimental: Binding of tPA to fibrin was measured using the conventional method of Rijken et al., J. Biol. Chem. 257, 2920-2925 (1982). This method involves mixing thrombin with a solution containing tPA and fibrinogen, centrifuging the resulting clot and measuring the concentration of tPA antigen in the supernatant. In a final volume of 200 μl, the following were combined: 200 ng/ml single chain melanoma tPA, 200 μg/ml human fibrinogen, 15 μg/ml tPA peptide, 1.1 mg/ml bovine serum albumin, 0.55 mg/ml bovine gamma globulin and 10 mM ε-amino caproic acid in PBSAT. Controls omitted fibrinogen, peptide or both. Mixtures were clotted by the addition of 1 unit/ml bovine thrombin, incubated one hour at room temperature and centrifuged. tPA antigen in the supernatant was measured by conventional ELISA and the percentage bound calculated by difference using the antigen level of a control mixture with no fibrinogen as 0% bound. […] An ELISA assay kit for tPA and PAI-1 was purchased from American Diagnostica Inc. and assays were performed according to printed protocols supplied by the manufacturer with the kit except that a single lot of melanoma tPA from American Diagnostica Inc. (product 111, lot 47-01) was used as the antigen standard throughout this work and 5.0 mg/ml of BSA and 2.5 mg/ml of bovine gamma globulin were included in ELISA buffers.

## LGKHNYCRNPDGDAKPWCHVLKNRR-amide (LGKHNYCRNPDGDAKPWCHVLKNRR-NH2; cysteine pairing not given here) [Peptide 166, 25 amino acid synthetic peptide amide fragment of native human tPA]
  % Bound (binding of tPA to fibrin): 57%

## VPVKSCSEPRCFNGGTCQQALYFSD-amide (VPVKSCSEPRCFNGGTCQQALYFSD-NH2; cysteine pairing not given here) [Peptide 148, 25 amino acid synthetic peptide amide fragment of native human tPA]
  % Bound (binding of tPA to fibrin): 50%

## NPDRDSKPWCYVFKAGKYSSEFCST-amide (NPDRDSKPWCYVFKAGKYSSEFCST-NH2; cysteine pairing not given here) [Peptide 158, 25 amino acid synthetic peptide amide fragment of native human tPA]
  % Bound (binding of tPA to fibrin): 53%
